Assay results as given in article PMC6288613, “Mouse REC114 is essential for meiotic DNA double-strand break formation and forms a complex with MEI4” (Life Science Alliance, 2018).

Target: the molecule itself
Test: SEC-MALS; SEC-MALLS, Superdex 75; 50 ul of purified protein injected at 10, 5 and 2 mg/ml; dimer to monomers, fast exchange

B1: Mouse REC114 (15-159) (domain or fragment, UniProt Q9CWH4 15-159, looked up)
chain: GEVSQWSLKRYGRFMLLDNVGSPGPSSEAAAAGSPTWKVFESSEESGSLVLTIVVSGHFFISQGQTLLEGFSLIGSKNWLKIVRRMDCLLFGTTIKNKSRMFRVQFSGESKEEALERCCGCVQTLAQYVTVQEPDSTTQELQQSQ
notes: REC114, mouse, residues 15-159 (PH domain), expressed from pProEXHTb; final crystallographic model includes residues 15-150; A selenomethionine-substituted form was also crystallised for phasing; also called REC114 PH domain; REC114 N-terminal region; source: E. coli BL21-Gold (DE3), purified (Ni2+ resin, TEV cleavage, second Ni2+ column, size-exclusion chromatography)
  stoichiometry N: 2
